Assay results as given in the supplement of paper PMC9732359.
± gives the uncertainty stated by the source.

Experiment: protein stability index of a GFP-peptide fusion (yeast GPS) (PSI 1-4); higher = more stable; sorted into four equal gates, so the index is relative within each strain
Summary of the method: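 The protein stability index of a peptide was calculated by multiplying its read frequency in each gate by that gate's number and adding the products. The peptides were tiled 17-residue stretches of yeast proteins, fused downstream of GFP on a Cherry-expressing plasmid and carried in yeast as a pooled library. Mid-log cultures in leucine-free medium were sorted into four equal gates by GFP/Cherry ratio, and each gate's plasmids were PCR-amplified and Illumina-sequenced.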

Row | Sequence | protein stability index (doa10∆) | protein stability index (pdr5∆) | protein stability index (san1∆) | protein stability index (ubr1∆)
1 | TKENLEVSGENVVEADL [QCR2] | 3.33 ± 0.27 | 3.6 ± 0.09 | 3.52 ± 0.1 | 2.8 ± 0.14
2 | IQSKAVEQGYEDAFNFW [YCG1] | 3.37 ± 0.13 | 3.33 ± 0.17 | 3.57 ± 0.12 | 
3 | ISKKIIGMSLLMRTFLY [SIR3] | 1.79 ± 0.081 | 2.31 ± 0.065 | 1.99 ± 0.083 | 1.75 ± 0.077
4 | QAHEIVIPSYSKWFNLE [SWI3] | 1.84 ± 0.052 | 1.82 ± 0.051 | 1.81 ± 0.071 | 1.66 ± 0.038
5 | TRQSSRNFDTHENYIQD [MCD1] | 2.92 ± 0.098 | 3.03 ± 0.082 | 2.84 ± 0.08 | 2.69 ± 0.056
6 | GVSLLALWKEKKEKPRS [RPS23A] | 3.12 ± 0.089 | 2.29 ± 0.11 | 2.21 ± 0.1 | 2.94 ± 0.075
7 | VLRIPEEYLDANVFRLE [MTW1] | 3.34 ± 0.1 | 3.44 ± 0.097 | 3.19 ± 0.072 | 3.23 ± 0.053
8 | QLGYIENSFYKKEASKT [POP1] | 2.27 ± 0.061 | 2.43 ± 0.058 | 2.43 ± 0.056 | 2.39 ± 0.044
9 | IIDRGRNVLSASLDGTI [RPN14] | 3.1 ± 0.093 | 2.52 ± 0.065 | 2.97 ± 0.055 | 2.77 ± 0.044
10 | KSSWRQEWLANLKLISV [SIR4] | 1.71 ± 0.057 | 1.45 ± 0.042 | 1.64 ± 0.16 | 1.46 ± 0.045
11 | LFPNELYNVMGINKKKL [RPC31] | 3.09 ± 0.27 | 2.87 ± 0.24 | 3.29 ± 0.082 | 3.5 ± 0.26
12 | DANLLEEGETSRPLKKV [SWI3] | 3.23 ± 0.12 | 3.45 ± 0.16 | 2.95 ± 0.082 | 2.99 ± 0.15
13 | KKRSHHGKASRQQYYSG [SNF6] | 3.05 ± 0.088 | 3.11 ± 0.062 | 2.92 ± 0.065 | 2.98 ± 0.079
14 | MKLVPSIPPATIETFNE [RPB5] | 2.41 ± 0.053 | 2.41 ± 0.06 | 2.11 ± 0.051 | 2.57 ± 0.049
15 | AHMWPRVHDQPLIWQLL [POP3] | 1.42 ± 0.12 | 1.64 ± 0.12 | 1.44 ± 0.23 | 1.51 ± 0.11
16 | IKELEHLHDAVFVNTGL [SWP82] | 2.94 ± 0.067 | 2.9 ± 0.058 | 3.06 ± 0.059 | 2.91 ± 0.05
17 | IPSQRGTSTTHGSISPQ [SIR3] | 2.39 ± 0.033 | 2.58 ± 0.035 | 2.37 ± 0.036 | 2.54 ± 0.026
18 | KRAFENFKKFNERRKDL [SMC3] | 3.45 ± 0.078 | 3.26 ± 0.068 | 3.51 ± 0.068 | 3.15 ± 0.075
19 | DTQFTKLLDDNPTEFDW [SRB8] | 2.99 ± 0.089 | 3.04 ± 0.071 | 2.91 ± 0.058 | 2.91 ± 0.043
20 | DRVIFRVPIRSEYKVAF [PRP8] | 2.93 ± 0.069 | 2.71 ± 0.061 | 2.55 ± 0.077 | 2.42 ± 0.034
21 | LEQQKQPTGLLKGLNGF [YMR153W/NUP53] | 3.53 ± 0.12 | 3.46 ± 0.11 | 3.18 ± 0.11 | 3.34 ± 0.074
22 | LKPKLYYEQFRPDLIKE [SIR3] | 3.06 ± 0.073 | 3.15 ± 0.06 | 3.25 ± 0.05 | 3.33 ± 0.045
23 | VSTPEKWDITTRNSNNL [BRR2] | 3.27 ± 0.14 | 3.19 ± 0.17 | 3.26 ± 0.082 | 3.04 ± 0.069

Row | Sequence | protein stability index (doa10∆) | protein stability index (pdr5∆) | protein stability index (san1∆) | protein stability index (ubr1∆)
24 | KFQLQNQLEDFILELEH [YIL149C/MLP2] | 2.72 ± 0.081 | 1.95 ± 0.099 | 2.11 ± 0.11 | 1.91 ± 0.086
25 | NAAVAGVANTDTAGEES [SWI3] | 3.06 ± 0.061 | 3.27 ± 0.062 | 3 ± 0.046 | 3.15 ± 0.056
26 | RKHRNAQFAGRASIEYY [DIS3] | 2.99 ± 0.13 | 3.11 ± 0.072 | 2.8 ± 0.13 | 2.99 ± 0.094
27 | ILNSHFDALRSLDDNST [YJL041W/NSP1] | 2.36 ± 0.054 | 2.07 ± 0.046 | 2.53 ± 0.064 | 2.55 ± 0.036
28 | LLLAANTHLGARNVQVH [RPS0A] | 1.93 ± 0.04 | 1.21 ± 0.039 | 1.17 ± 0.061 | 1.13 ± 0.036
29 | LATYGLTIDDLGVASFH [FAS2] | 2.97 ± 0.055 | 3.11 ± 0.053 | 2.92 ± 0.044 | 3.11 ± 0.036
30 | RHMVDDKIHARARGPMQ [RPB2] | 3.38 ± 0.17 | 3.48 ± 0.13 | 3.27 ± 0.16 | 2.7 ± 0.16
31 | MTMLTPNYLHLVSSYLN [YML103C/NUP188] | 1.82 ± 0.039 | 1.66 ± 0.035 | 1.69 ± 0.051 | 1.4 ± 0.032
32 | THPHAADGSSYMEQGNN [SKI6] | 3.05 ± 0.073 | 3.2 ± 0.063 | 3.02 ± 0.052 | 3.07 ± 0.047
33 | GTNAMLPSPESLKTKLN [SNF5] | 1.88 ± 0.037 | 1.97 ± 0.035 | 2.19 ± 0.046 | 2.12 ± 0.034
34 | VDSWDREFLKVDQEMLY [SKP1] | 3.43 ± 0.12 | 3.29 ± 0.078 | 3.21 ± 0.1 | 3.26 ± 0.086
35 | QQQQQQQQQQQQQQQQH [GAL11] | 2.68 ± 0.033 | 2.8 ± 0.029 | 2.698 ± 0.025 | 2.878 ± 0.024
36 | SANERLFGNRPSMMAPL [YML031W/NDC1] | 2.96 ± 0.21 | 2.63 ± 0.13 | 2.62 ± 0.12 | 3.03 ± 0.089
37 | EDDDIRSRMLPTITLDD [SNF5] | 2.46 ± 0.15 | 3.07 ± 0.18 |  | 3.44 ± 0.14
38 | INESAENFSNGISLVME [MED1] | 3.35 ± 0.11 | 3.16 ± 0.07 | 3.07 ± 0.055 | 3.1 ± 0.045
39 | VQLLLHINSILLARVIQ [SNF11] | 1.84 ± 0.12 | 1.27 ± 0.076 |  | 1.47 ± 0.087
40 | TGNNLYDRNSNNNHKDK [SWI1] | 3.03 ± 0.049 | 3.12 ± 0.051 | 2.89 ± 0.06 | 3.12 ± 0.039
41 | TENAIEEKVIERAAQKL [ISW2] | 2.61 ± 0.095 | 2.74 ± 0.17 |  | 2.79 ± 0.051
42 | IPAWFLNRQNDITDGKD [RPS18A] | 2.91 ± 0.17 | 3.22 ± 0.15 | 2.76 ± 0.2 | 2.87 ± 0.09
43 | SMINSVSPTNVMGTPLT [PGD1] | 2.8 ± 0.053 | 2.94 ± 0.059 | 2.73 ± 0.042 | 2.84 ± 0.047
44 | MKWDFAKDIKGYGTQKI [PRE4] | 2.15 ± 0.064 | 1.85 ± 0.057 | 1.84 ± 0.12 | 1.4 ± 0.048
45 | KLQLGQLYESGNPVNDA [COR1] | 3.03 ± 0.076 | 2.98 ± 0.091 | 3.17 ± 0.065 | 3.01 ± 0.077
